Drawing on publication PMC5605520, “Ylehd, an epoxide hydrolase with promiscuous haloalkane dehalogenase activity from tropical marine yeast Yarrowia lipolytica is induced upon xenobiotic stress” (Scientific Reports, 2017), this text covers Km and stoichiometry N for two compounds.

Assay [1] concerns the target T1, Ylehd (Yarrowia lipolytica, UniProt Q6C598).
T1 construct: gene YALI0_E19899g; full-length ORF in pET28a, His-tagged, E. coli BL21AI; 352 amino acids; 43 kDa monomer; likely dimer at pH 8.0 (EH), tetramer at pH 4.5 (HLD)
The assay is described as follows: spectrophotometric residual epoxide assay, […] nm. The following applies: epoxide hydrolase activity; 50 mM Tris-sulphate, pH 8.0, 30 °C. Type of assay: biochemical.

Assay [2] deals with Ylehd (epoxide hydrolase with promiscuous haloalkane dehalogenase activity from Yarrowia lipolytica NCIM 3589) (Yarrowia lipolytica NCIM 3589). The assay is described as follows: SEC; Superdex S200 10/300GL equilibrated with 50 mM Tris-sulphate buffer pH 8.0; mass from calibration with proteins of known molecular mass. On the technique in general: SEC sorts molecules by how far they enter the pores of the column.

The target is the same in assay [3]. In words: SEC; Superdex S200 10/300GL equilibrated with 50 mM sodium acetate buffer pH 4.5; mass from calibration with proteins of known molecular mass.

As a reminder, the Km is the concentration of substrate that gives half-maximal velocity. For orientation: stoichiometry N means the number of molecules, sites or subunits per partner or assembly.

On to `CCCCCCC1CO1` (stereo not drawn) [1,2-Epoxyoctane], for which the Km in assay [1] worked out at 500 ± 45 µM.
Take “Ylehd (epoxide hydrolase with promiscuous haloalkane dehalogenase activity from Yarrowia lipolytica NCIM 3589) (enzyme)”: the stoichiometry N in assay [2] was 2; in assay [3], 4.
